Here are results for 6 molecules from publication PMC5835413 (Journal of structural biology, 2017).

The chains are these.
B1: Non-tagged mutant (E40D/V43S/A56G) RhoA bound to GTPγS (natural protein)
chain: not shown
B2: PH domain of p114RhoGEF (domain or fragment, UniProt Q6P9R4 723-825, looked up)
chain: QLHLEGALCWKSTSGRLKDVLAVLLTDVLLLLQEKDQKYVFASVDSKPPVISLQKLIVREVANEEKAMFLISASMQGPEMYEMYTSSKEDRNIWMAHIRRAVE
B3: Fluorescent p190-PH: CFP fused to the N-terminus of the p190 PH domain (domain or fragment)
chain: EKNQKWLEILNKIENKTYTKLKNGHVFRKQALMSEERTLLYDGLVYWKTATGRFKDILALLLTDVLLFLQEKDQKYIFAAVDQKPSVISLQKLIAREVANEERGMFLISASSAGPEMYEIHTNSKEERNNWMRRIQQAVESCPEEK
B4: PH domain of human p190RhoGEF (residues 1049-1194) with C-terminal His6 (domain or fragment, UniProt Q8N1W1 1049-1194, looked up)
chain: B3 chain
B5: PH domain of AKAP-Lbc (domain or fragment, UniProt Q12802 2192-2333, looked up)
chain: VASYEKKVRLNEIYTKTDSKSIMRMKSGQMFAKEDLKRKKLVRDGSVFLKNAAGRLKEVQAVLLTDILVFLQEKDQKYIFASLDQKSTVISLKKLIVREVAHEEKGLFLISMGMTDPEMVEVHASSKEERNSWIQIIQDTIN
B6: PH domain of human PDZRhoGEF (residues 927-1085) with C-terminal His6 (domain or fragment, UniProt O15085 927-1085, looked up)
chain: TENRHRLEGYQKRLDATALERASNPLAAEFKSLDLTTRKMIHEGPLTWRISKDKTLDLHVLLLEDLLVLLQKQDEKLLLKCHSKTAVGSSDSKQTFSPVLKLNAVLIRSVATDKRAFFIICTSKLGPPQIYELVALTSSDKNTWMELLEEAVRNATRHP

Assay [1] addresses B3. Kind of assay: FRET or BRET. A general note: BRET reads energy transfer from a luciferase to a nearby fluorophore.
Assay [2] addresses Non-tagged RhoA bound to GTPγS (human, UniProt P61586 1-193). Briefly: ITC. (ITC needs no label: the signal is the heat of the interaction.)
Assay [3] concerns the target Non-tagged Rac1 bound to GTPγS (human, UniProt P63000 1-192). Briefly: FRET or BRET.
Another assay addresses GST-Rac2 (human, UniProt P15153 1-192). Kind of assay: pull-down.
For the next assay, the target named is GST-Rac3 (human, UniProt P60763 1-192). Kind of assay: pull-down.
For the next assay, the target named is GST-RhoC (human, UniProt P08134 1-193). Kind of assay: pull-down.
Chain of GST-RhoC (P08134 whole entry): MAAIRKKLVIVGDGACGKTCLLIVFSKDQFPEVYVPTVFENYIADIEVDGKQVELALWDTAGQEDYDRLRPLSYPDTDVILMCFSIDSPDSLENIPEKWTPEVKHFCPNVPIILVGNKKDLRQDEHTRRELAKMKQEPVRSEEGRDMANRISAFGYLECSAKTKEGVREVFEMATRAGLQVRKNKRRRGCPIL
A further assay concerns the target GST-RhoB (human, UniProt P62745 1-196). Kind of assay: pull-down.

Chain of Non-tagged RhoA bound to GTPγS (P61586 whole entry): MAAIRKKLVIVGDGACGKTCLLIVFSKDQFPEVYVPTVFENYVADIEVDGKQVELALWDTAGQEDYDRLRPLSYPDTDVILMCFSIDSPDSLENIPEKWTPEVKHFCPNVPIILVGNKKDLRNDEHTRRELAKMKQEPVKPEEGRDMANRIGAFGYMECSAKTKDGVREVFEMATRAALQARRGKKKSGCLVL
Chain of GST-RhoB (P62745 whole entry): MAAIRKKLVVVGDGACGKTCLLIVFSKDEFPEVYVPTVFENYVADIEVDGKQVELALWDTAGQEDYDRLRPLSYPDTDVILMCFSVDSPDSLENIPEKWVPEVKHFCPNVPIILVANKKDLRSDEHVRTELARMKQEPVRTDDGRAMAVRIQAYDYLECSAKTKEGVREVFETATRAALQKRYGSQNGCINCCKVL

With B1, the “fold reduction in affinity against wild-type RhoA” value in assay [1] worked out at 2 fold.
As to B2, binding in assay [2] was characterised by a dissociation constant (Kd) of 13 µM. This lies in the double-digit micromolar range.
In the case of B3, in assay [3], the equilibrium dissociation constant (Kd) (as a rule, the equilibrium constant for the complex coming apart) is roughly 20 µM.
B4 gave a Kd in assay [2] of roughly 2 µM. Besides, the binding result in the assay with GST-Rac2, in the assay with GST-Rac3, with GST-RhoC and with GST-RhoB was “binds” each time.
Take B5: binding in assay [2] was characterised by a dissociation constant (Kd) of 3.1 µM.
B6: the Kd in assay [2] amounted to 1.2 µM.
